Results from the RNAGym collection of RNA variant scans (doi:10.7554/elife.80360).

B1: Twister Ribozyme (parent)
chain: AACACUGCCAAUGCCGGUCCCAAGCCCGGAUAAAAGUGGAGGGGGCGG

Variants of: B1
Assay: self-cleavage, relative activity (ratio to wild type); higher = more cleavage; co-transcriptional

Row | Variant | self-cleavage
1 | A2U A35C | 0.745
2 | C5G A35G | 0.696
3 | A33G G45A | 0.803
4 | A32C G42U | 0.266
5 | A2C U18G | 0.0901
6 | U18C G29A | 0.275
7 | G7A G45C | 0.139
8 | G7A U18C | 0.0816
9 | U18C U37A | 0.197
10 | U31C G38C | 0.842
11 | C9A C21U | 0.0545
12 | U6C G38C | 0.249
13 | G13A G24C | 0.129
14 | C15G A40U | 0.0313
15 | G7A G43U | 0.152
16 | U18C G48U | 0.496
17 | C27A C46U | 0.639
18 | U31G A34U | 0.904
19 | A4G G39A | 0.322
20 | C20G G29U | 0.146
21 | U31A C46G | 0.763
22 | C25U G28A | 0.713
23 | C25A G44A | 0.169
24 | A1C G44U | 0.133

Row | Variant | self-cleavage
25 | U6G C21G | 0.116
26 | G24A A33U | 0.0989
27 | C3A G7C | 0.0682
28 | A1C U12C | 0.144
29 | C15G G41C | 0.0823
30 | A35U A40G | 0.133
31 | G28A A32G | 0.835
32 | U6G G24C | 0.356
33 | A11C A35C | 0.886
34 | G29C G42C | 0.174
35 | C25U A33U | 0.822
36 | A11G G28U | 0.725
37 | A32U A33C | 0.895
38 | A40G G48A | 0.193
39 | A23U G38C | 0.499
40 | G39C A40C | 0.114
41 | G38C G41A | 0.295
42 | A2U C5A | 0.13
43 | A2U C5G | 0.172
44 | A22G A32G | 0.25
45 | C25A | 0.144
46 | G29U G48A | 0.905
47 | C26U A32G | 0.411
48 | A35U G36U | 0.472

Row | Variant | self-cleavage
49 | C5U G44U | 0.816
50 | C15U C46U | 0.917
51 | A2G G43U | 0.119
52 | A1C C19U | 0.205
53 | A23G G24C | 0.0875
54 | G17C C26G | 0.446
55 | C3A U18A | 0.0528
56 | A30U A32U | 0.879
57 | U18A G29C | 0.0874
58 | C3G G43A | 0.12
59 | C25A G42U | 0.0765
60 | C20A A32U | 0.186
61 | U18A G45U | 0.272
62 | U31C A33C | 0.925
63 | G38U A40C | 0.127
64 | C8U C27U | 0.288
65 | G17U A23C | 0.0677
66 | C3G G38C | 0.449
67 | A10C G28U | 0.811
68 | G16C C26G | 0.0968
69 | A23G U31A | 0.602
70 | C21G G36A | 0.0998
71 | C15G G45U | 0.133
72 | A32G A33G | 0.654

Row | Variant | self-cleavage
73 | C3G C46A | 0.624
74 | C5G A32C | 0.57
75 | C9G U31C | 0.722
76 | A23G G38C | 0.289
77 | C3U G39A | 0.146
78 | U6A C21U | 0.0948
79 | A10C C20A | 0.199
80 | A10G A32C | 1.02
81 | C8A A34U | 0.675
82 | G39U G41C | 0.121
83 | A32C U37C | 0.494
84 | A1U A22C | 0.0885
85 | A23U G24A | 0.0917
86 | C14A C27A | 0.31
87 | A32G C46U | 0.933
88 | G24A | 0.125
89 | C21U G43A | 0.08
90 | A40U | 0.158
91 | C3U A34C | 0.155
92 | G39A G43C | 0.134
93 | C26G G39C | 0.119
94 | C14G G29A | 0.182
95 | G7A C19G | 0.0847
96 | C19G U31C | 0.492

Row | Variant | self-cleavage
97 | A1U G36A | 0.0371
98 | G36A G41A | 0.13
99 | A10U A33C | 1.08
100 | G39C G45U | 0.158
101 | C14U G36A | 0.789
102 | G13A C14A | 0.685
103 | G17C A23C | 0.092
104 | A4G A33G | 0.941
105 | A10C A33U | 1.08
106 | U6A C14A | 0.866
107 | C3A C15U | 0.108
108 | C3A C15A | 0.101
109 | U12A U31A | 0.679
110 | A40G C46U | 0.155
111 | U31G A40U | 0.199
112 | A23U G42C | 0.148
113 | G7U G42A | 0.0796
114 | G45C G48C | 0.89
115 | C20A G39C | 0.0811
116 | C8A A40G | 0.17
117 | G38C G48C | 0.977
118 | G36A G38U | 0.193
119 | A1G G47C | 0.385
120 | C3A G47A | 0.245

Row | Variant | self-cleavage
121 | C8A G45A | 0.203
122 | A22G C25A | 0.0752
123 | A2G C27A | 0.0876
124 | A10U A30G | 0.915
125 | C5U U31A | 0.577
126 | A23C G28C | 0.0761
127 | G13U A23U | 0.0818
128 | A22U G43U | 0.185
129 | A1U G42A | 0.0707
130 | U6C C26U | 0.0774
131 | C9A G29C | 0.307
132 | C14A G24U | 0.146
133 | C27G A40C | 0.119
134 | G28C G36A | 0.292
135 | G24C G45U | 0.119
136 | U37C G42A | 0.105
137 | G16U G28U | 1.07
138 | U18G C25G | 0.0608
139 | G13C A23U | 0.0457
140 | U18A G43A | 0.147
141 | C8A C9A | 0.0842
142 | G29C U37A | 0.259
143 | C14A G42A | 0.417
144 | A22G G29A | 0.221

Row | Variant | self-cleavage
145 | G7C A33U | 0.0354
146 | C26U G45U | 0.145
147 | G7C G16U | 0.0598
148 | C27A G44C | 0.298
149 | C20U A35U | 1.08
150 | A23C A40G | 0.128
151 | G7A A35C | 0.493
152 | A1G G24C | 0.18
153 | U18G U31G | 0.102
154 | G13U C14U | 0.635
155 | A35U C46G | 0.927
156 | G7C G48U | 0.0851
157 | G28U G41C | 0.263
158 | C27G G39U | 0.123
159 | G13A A35U | 0.978
160 | U37C A40U | 0.0912
161 | A34G G43C | 0.162
162 | A10U A35C | 1.16
163 | A10U A35G | 0.808
164 | C8G G45U | 0.183
165 | G7U | 0.143
166 | U31G G36U | 0.374
167 | A33U G45A | 0.884
